# Laboratory results as given in publication PMC13213242, “A novel ψ–χ fusion protein for unravelling the contributions of χ to DNA replication and repair” (Nucleic Acids Research, 2026).
# Like-named read-outs stand apart in the source and are kept apart here.
# B1: β-AF488_(2) (β sliding clamp R103C/I305C/C260S/C333S labelled with Alexa Fluor 488) (natural protein, E. coli, UniProt P0A988 1-366, looked up)
# chain: MKFTVEREHLLKPLQQVSGPLGGRPTLPILGNLLLQVADGTLSLTGTDLEMEMVARVALVQPHEPGATTVPARKFFDICRGLPEGAEIAVQLEGERMLVRSGCSRFSLSTLPAADFPNLDDWQSEVEFTLPQATMKRLIEATQFSMAHQDVRYYLNGMLFETEGEELRTVATDGHRLAVCSMPIGQSLPSHSVIVPRKGVIELMRMLDGGDNPLRVQIGSNNIRAHVGDFIFTSKLVDGRFPDYRRVLPKNPDKHLEAGSDLLKQAFARAAILSNEKFRGVRLYVSENQLKITANNPEQEEAEECLDVTYSGAEMEIGFNVSYVLDVLNALKSENVRMMLTDSVSSVQIEDAASQSAAYVVMPMRL
# modifications: Alexa Fluor 488 (maleimide) on the introduced surface Cys residues (R103C, I305C)
# notes: DNA polymerase III β sliding clamp, E. coli; labelled at both sides of the dimer interface; also called β-AF88_(2); β-R103C/I305C/C260S/C333S; source: expressed and purified as described previously; labelled with AF488 maleimide, purified (BioGel P6-DG desalting, HiTrap Q)
# Tests used:
# [1] = target: beta clamp (Escherichia coli) (UniProt P0A988); conditions: cited from earlier work
# [2] = target: beta clamp (Escherichia coli) (UniProt P0A988); conditions: cited from earlier work; remark: listed apart in the source
# [3] = target: β-AF488_(2) (β sliding clamp R103C/I305C/C260S/C333S labelled with Alexa Fluor 488) (E. coli) (UniProt P0A988); assay: other fluorescence titration; γ complex titrated into β-AF488_(2) (20 nM in the text, 10 nM in the legend) with 0.5 mM ATP; relative AF488 intensity at 520 nm, excitation 495 nm; reaction buffer 20 mM Tris–HCl pH 7.5, 50 mM NaCl, 8 mM MgCl2, 5 mM DTT, 0.5 mM EDTA, 40 μg/ml BSA, 4% glycerol; three independent experiments
# [4] = target: T1, WT γ complex clamp loader (γ3δδ′ψχ) (E. coli, UniProt P06710-2 1-431; P28630 1-343; P28631 1-334; P28632 1-137; P28905 1-147); assay: as above; conditions: both partners purified
# T1 construct: DNA polymerase III subunit γ, the truncated form of DnaX made by a translational frameshift, E. coli; DNA polymerase III subunit δ, E. coli; DNA polymerase III subunit δ′, E. coli; DNA polymerase III subunit ψ, E. coli; DNA polymerase III subunit χ, E. coli; also called WT clamp loader; source: expressed and purified as described previously [12, 25–28]; copies: 3 + + + +
molecule,measurement,setting,value
gamma complex clamp loader (from UniProt P06710),Kd,[1],3.3 nM
same,Kd,[2],3.2 nM
γ complex containing ψ–GS8–χ (γ3δδ′ψ–GS8–χ) (from UniProt P06710-2 1-431; P28630 1-343; P28631 1-334; P28632 1-137),Kd,[3],4.2 nM
γ complex containing ψ–GS12–χ (γ3δδ′ψ–GS12–χ) (from UniProt P06710-2 1-431; P28630 1-343; P28631 1-334; P28632 1-137),Kd,[3],2.1 nM
B1,Kd,[4],2 nM
